{
  "source": "paper PMC9283941",
  "about": "“Self-activating G protein α subunits engage seven-transmembrane regulator of G protein signaling (RGS) proteins and a Rho guanine nucleotide exchange factor effector in the amoeba Naegleria fowleri” (The Journal of Biological Chemistry, 2022)",
  "key": {"[1]": {"biological_target": "Naegleria fowleri G protein α subunit Nf Gα3 (Naegleria fowleri)", "assay": "SPR; Proteon XPR36; ~5000 RU of His6-tagged Gα subunits immobilised on a nickel-NTA chip by covalent capture coupling; RGS domains injected as analyte at 20 μl/min; 50 mM Hepes pH 7.4, 150 mM NaCl, 0.05% NP-40 alternative, 50 μM EDTA, 1 mM MgCl2; Gα in the AMF state (100 μM GDP, 20 mM NaF, 30 μM AlCl3); equilibrium binding analysis"}, "[2]": {"biological_target": "Naegleria fowleri G protein α subunit Nf Gα2 (Naegleria fowleri)", "assay": "SPR; Proteon XPR36; ~5000 RU of His6-tagged Gα subunits immobilised on a nickel-NTA chip by covalent capture coupling; RGS domains injected as analyte at 20 μl/min; 50 mM Hepes pH 7.4, 150 mM NaCl, 0.05% NP-40 alternative, 50 μM EDTA, 1 mM MgCl2; Gα in the AMF state (100 μM GDP, 20 mM NaF, 30 μM AlCl3); equilibrium binding analysis"}, "Nf Gα5 [3]": {"biological_target": "T1, Nf Gα5 (Naegleria fowleri, UniProt A0A6A5BQC6)", "T1 construct": "gene FDP41_003899; N-terminal TEV-cleavable His6 tag; E. coli", "T1 sequence (A0A6A5BQC6 57-394 limits assumed)": "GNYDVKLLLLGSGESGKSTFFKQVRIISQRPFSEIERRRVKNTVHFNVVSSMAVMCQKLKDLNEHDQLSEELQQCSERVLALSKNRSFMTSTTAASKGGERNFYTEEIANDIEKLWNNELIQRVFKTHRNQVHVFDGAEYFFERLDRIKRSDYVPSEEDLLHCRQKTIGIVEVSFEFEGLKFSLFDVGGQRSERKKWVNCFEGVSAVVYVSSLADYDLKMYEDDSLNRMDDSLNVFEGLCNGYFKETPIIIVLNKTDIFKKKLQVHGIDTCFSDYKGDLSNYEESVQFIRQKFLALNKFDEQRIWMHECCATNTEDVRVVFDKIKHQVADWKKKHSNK", "assay": "intrinsic tryptophan fluorescence (activation)", "type": "binding", "details": "0.5 μM protein, 1 μM nucleotide, 10 mM MgCl2, pH 7.5, 20 °C"}, "Nf Gα7": {"biological_target": "T2, Nf Gα7 (Naegleria fowleri, UniProt A0A6I8WFP8)", "T2 construct": "gene NF0037180; N-terminal TEV-cleavable His6 tag; E. coli", "T2 sequence (A0A6I8WFP8 1-321)": "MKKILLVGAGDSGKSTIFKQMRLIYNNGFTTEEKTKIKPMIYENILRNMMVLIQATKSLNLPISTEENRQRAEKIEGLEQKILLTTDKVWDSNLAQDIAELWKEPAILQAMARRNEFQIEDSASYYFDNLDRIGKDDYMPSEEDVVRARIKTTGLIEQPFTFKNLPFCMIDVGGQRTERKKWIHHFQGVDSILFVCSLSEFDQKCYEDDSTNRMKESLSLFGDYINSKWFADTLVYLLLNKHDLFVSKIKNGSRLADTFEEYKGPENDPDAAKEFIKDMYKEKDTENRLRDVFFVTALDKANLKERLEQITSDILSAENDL", "assay": "intrinsic tryptophan fluorescence (activation)", "type": "binding", "details": "0.5 μM protein, 1 μM nucleotide, 10 mM MgCl2, pH 7.5, 20 °C"}, "Nf Gα5 [4]": {"biological_target": "T1, Nf Gα5", "assay": "intrinsic tryptophan fluorescence (activation, return after hydrolysis)", "type": "biochemical", "details": "0.5 μM protein, 1 μM nucleotide, 10 mM MgCl2, pH 7.5, 20 °C"}},
  "note": "pKd: −log10 of the molar value.",
  "data": [
    {"compound": "RGS domain of Naegleria fowleri Nf RGS-RhoGEF (domain or fragment)", "values": [
      {"measurement": "pKd", "setting": "[1]", "result": 5.48},
      {"measurement": "pKd", "setting": "[2]", "result": 5.62}
    ]},
    {"compound": "Nc1nc2c(ncn2[C@@H]2O[C@H](COP(=O)(O)OP(=O)(O)NP(=O)(O)O)[C@@H](O)[C@H]2O)c(=O)[nH]1", "note": "[GppNHp]", "values": [
      {"measurement": "intrinsic tryptophan fluorescence (activation)", "setting": "Nf Gα5 [3]", "result": "achieved the active conformation in the presence of either GppNHp or GTP"},
      {"measurement": "intrinsic tryptophan fluorescence (activation)", "setting": "Nf Gα7", "result": "achieved the active conformation in the presence of either GppNHp or GTP"}
    ]},
    {"compound": "RGS domain of Naegleria fowleri seven-transmembrane RGS protein Nf 7TM RGS2 (domain or fragment)", "values": [
      {"measurement": "pKd", "setting": "[1]", "result": 6.26},
      {"measurement": "pKd", "setting": "[2]", "result": 6.20}
    ]},
    {"compound": "Nc1nc2c(ncn2[C@@H]2O[C@H](COP(=O)(O)OP(=O)(O)OP(=O)(O)O)[C@@H](O)[C@H]2O)c(=O)[nH]1", "note": "[GTP]", "values": [
      {"measurement": "intrinsic tryptophan fluorescence (activation)", "setting": "Nf Gα7", "result": "achieved the active conformation in the presence of either GppNHp or GTP"},
      {"measurement": "intrinsic tryptophan fluorescence (activation, return after hydrolysis)", "setting": "Nf Gα5 [4]", "result": "returned slowly to near-baseline levels after multiple rounds of hydrolysis and exhaustion of available GTP"}
    ]},
    {"compound": "RGS domain of Naegleria fowleri seven-transmembrane RGS protein Nf 7TM RGS4 (domain or fragment)", "values": [
      {"measurement": "pKd", "setting": "[1]", "result": 5.74}
    ]}
  ]
}
